Data as given in patent US9555076B2, “Neuregulin based methods and compositions for treating cardiovascular diseases” (Zensun (Shanghai) Science & Technology, Co., Ltd., priority 2002, dated 2017).
“And” between values parts separate entries of the source, which are not always exact repeats. Identical values can stand only once.

Test system: heart failure in rat caused by ligation of coronary artery
Test: Echocardiography heart function, heart failure by ligation of coronary artery
Format: in vivo, SD rat
Procedure: Route of drug administration: in both testing drug group and model group the drug was injected into the tail vein once per day for consecutive 5 days. Echocardiography was performed at the 6th day prior to drug administration, then continuously injected for 5 days. Volume of each drug injection was 0.4 ml/100 g body weight.
After anesthesia with intra-abdominal injection of 100 mg/kg ketamine, the rat was fixed on rat plate in supine position, disinfection of the neck region with bromo-geramine was carried out after depilating. Midline incision was made, trachea was found after separating the anterior cervical muscle, 18 G arterial indwelling trochar was inserted into the trachea at the level of 3-5 tracheal cartilage, took out the stylet, push the plastic cannula 1-2 cm further into the trachea, fixed it for later connection with ventilator for small animal (tidal volume was about […], frequency was 80/min). […] Then closed the chest wall, block the opening of the ventilator to inflate the lungs, forcefully pressed the chest to drive out the air, then sutured the chest muscle and skin. Monitoring the respiration, after spontaneous respiration recovered, withdrawn the ventilator, took the animal back to its cage for breeding. In the pseudo-operation group, only the pericardium was tore open, but without the coronary artery ligation.
Echocardiograph was performed for the operated rat at about 6 days postoperatively, those animals with about 50% reduction of EF value were randomly divided into groups, the EF value of each group was all about 50%, then drug administration began.
Those animals with EF value of about 50% were randomly divided into model group (negative group) and 3-dosage level testing drug groups with 12-13 animals in each group. Route of drug administration in testing drug group and model group was injection into the tail vein, once every day for consecutive 5 days. After echocardiography at the 6th day, another 5 days of consecutive drug administration was carried out. Drug volume of each injection was 0.4 ml/100 g body weight.
Echocardiography was performed under anesthesia with ketamine after the legation and prior to drug administration and at the 6th day, 11th day of drug administration, the major index included: • EF: heart ejection fraction, reflecting ejection function of ventricle; • FS: ventricular short axis shortening rate, reflecting contraction function of ventricle; • LVDd: diastolic maximal inner diameter of left ventricle (cm); • LVDs: systolic minimal inner diameter of left ventricle (cm). 6.3.3.2 Determination of the Content of Plasma Renin-angiotensin-aldosterone

[1] = 5 μg/kg group, prior to drug administration, (1)
[2] = 5 μg/kg iv 10 qd, 10 days after the drug administration, (II)
[3] = 5 μg/kg iv qd × 5, 5 days after the drug administration, (1)
[4] = 5 μg/kg iv qd × 5, 5 days after the drug administration, (II)
[5] = 5 μg/kg iv qd × 10, 10 days after the drug administration, (1)
[6] = 5 μg/kg, Table 4, titled 10 days after the drug administration, (II)
[7] = 10 μg/kg group, prior to drug administration, (1)
[8] = 10 μg/kg iv 10 qd, 10 days after the drug administration, (II)
[9] = 10 μg/kg iv qd × 5, 5 days after the drug administration, (1)
[10] = 10 μg/kg iv qd × 5, 5 days after the drug administration, (II)
[11] = 10 μg/kg iv qd × 10, 10 days after the drug administration, (1)
[12] = 10 μg/kg, Table 4, titled 10 days after the drug administration, (II)
[13] = 20 μg/kg group, prior to drug administration, (1)
[14] = 20 μg/kg iv 10 qd, 10 days after the drug administration, (II)
[15] = 20 μg/kg iv qd × 5, 5 days after the drug administration, (1)
[16] = 20 μg/kg iv qd × 5, 5 days after the drug administration, (II)
[17] = 20 μg/kg iv qd × 10, 10 days after the drug administration, (1)
[18] = 20 μg/kg, Table 4, titled 10 days after the drug administration, (II)

B1: rhNRG-1 β: Recombinant human neuregulin fragment of 61 amino acid (SEQ ID NO:4), 3 disulfide bonds, expressed in E. coli (protein, listed as Homo sapiens)
chain: SHLVKCAEKEKTFCVNGGECFMVKDLSNPSRYLCKCPNEFTGDRCQNYVMASFYKAEELYQ
modifications: disulfide (positions not given here)
EF [1]: 49.3% | FS [1]: 22.0% | LVDd [1]: 0.761 cm | LVDs [1]: 0.596 cm | EF [2]: 57.90% | FS [2]: 29.26% | LVDd [2]: 0.70 cm | LVDs [2]: 0.53 cm | EF [3]: 62.9±8.4% and 62.90% | FS [3]: 30.3±6.1% and 30.32% | LVDd [3]: 0.73 cm | LVDs [3]: 0.54 cm | EF [4]: 56.76% | FS [4]: 28.35% | LVDd [4]: 0.74 cm | LVDs [4]: 0.58 cm | EF [5]: 59.2±12.4% and 59.2% | FS [5]: 28.4±8.6% and 28.4% | LVDd [5]: 0.72 cm | LVDs [5]: 0.55 cm | EF value (5 μg/kg, 5-day after drug administration and 35-day after drug withdrawal): 69.9 ± 28.6% | EF value (5 μg/kg, 5-day after drug administration, long-term monitoring): 75.8 ± 15.3% | EF [6]: 50.81% | FS [6]: 22.83% | LVDd [6]: 0.66 cm | LVDs [6]: 0.51 cm | EF [7]: 49.5% | FS [7]: 22.1% | LVDd [7]: 0.709 cm | LVDs [7]: 0.555 cm | EF [8]: 66.54% | FS [8]: 34.28% | LVDd [8]: 0.68 cm | LVDs [8]: 0.49 cm | EF [9]: 64.4±12.9% and 64.3±12.8% and 64.35% | FS [9]: 32.0±9.5% and 32.01% | LVDd [9]: 0.71 cm | LVDs [9]: 0.51 cm | EF [10]: 56.51% | FS [10]: 26.53% | LVDd [10]: 0.72 cm | LVDs [10]: 0.54 cm | EF [11]: 61.4±15.0% and 61.4% | FS [11]: 30.3±10.4% and 30.3% | LVDd [11]: 0.7 cm | LVDs [11]: 0.51 cm | EF value (10 μg/kg, 5-day after drug administration and 35-day after drug withdrawal): 63.8 ± 23.8% | EF value (10 μg/kg, 5-day after drug administration, long-term monitoring): 77.3 ± 11.6% | EF [12]: 51.67% | FS [12]: 23.27% | LVDd [12]: 0.64 cm | LVDs [12]: 0.49 cm | EF value (10 μg/kg, after ligation prior to drug administration, long-term monitoring): 52.2 ± 12.8% | EF [13]: 49.3% | FS [13]: 21.7% | LVDd [13]: 0.730 cm | LVDs [13]: 0.575 cm | EF [14]: 70.22% | FS [14]: 36.49% | LVDd [14]: 0.65 cm | LVDs [14]: 0.42 cm | EF [15]: 71.1±12.0% and 71.07% | FS [15]: 36.9±9.7% and 36.88% | LVDd [15]: 0.70 cm | LVDs [15]: 0.46 cm | EF [16]: 65.47% | FS [16]: 34.23% | LVDd [16]: 0.68 cm | LVDs [16]: 0.46 cm | EF [17]: 75.7±10.8% and 75.7% | FS [17]: 41.3±11.0% and 41.3% | LVDd [17]: 0.6 cm | LVDs [17]: 0.5 cm | EF value (20 μg/kg, 5-day after drug administration, long-term monitoring): 79.2 ± 4.7 % | EF [18]: 52.29% | FS [18]: 23.89% | LVDd [18]: 0.74 cm | LVDs [18]: 0.56 cm | EF value (20 μg/kg, after ligation prior to drug administration, long-term monitoring): 52.4 ± 13.8%
